Reference: patent US20250304677A1 (VIB VZW, published 2025)
Each block holds one binder with its values, some of them ahead of it.

Experiments:
human FOLR1/2 chimera 3 = human FOLR1/2 chimera 3 (human, UniProt P15328 25-234); experiment: flow cytometry, transfected HEK293T cells
Method: (§1) Chimera 1 SEQ ID No. 67) and 7 ^{∘}Ch7; SEQ ID No. 73) also contain an additional residue change at a separate location. […] HEK293T cells were transfected with hFOLR1, hFOLR2, one of the hFOLR1/2 chimeric constructs ^{∘}FIG. 2B) or single residue mutants ^{∘}FIG. 2C). Binding of VHHs 2HFO19, 2HFO42, 3MFR60, and a mouse anti-FOLR1 monoclonal antibody ^{∘}mAb) was detected using a mouse anti-His tag antibody for the VHHs followed by an anti-mouse-phycoerythrin antibody. All VHHs were tested at a concentration of 200 nM and untransfected cells were used as a negative control. The colors used for the VHHs represent the different CDR3 families; blue: family 1, green: family 3, grey: family 10.
(§2) To identify the exact region in which the VHHs bind to FRα, epitope mapping experiments were performed. Since the VHHs are able to bind human FRα, but not FRβ, we generated seven human FOLR1/2 chimeric constructs where regions of human FOLR1 were replaced by the corresponding human FOLR2 ^{∘}FRβ) regions ^{∘}FIG. 2A): chimera 1 SEQ ID No. 67), chimera 2 ^{∘}SEQ ID No. 68), chimera 3 ^{∘}SEQ ID No. 69), chimera 4 ^{∘}SEQ ID No. 70), chimera 5 ^{∘}SEQ ID No. 71), chimera 6 ^{∘}SEQ ID No. 72) and chimera 7 ^{∘}SEQ ID No. 73). Three additional chimera 1 constructs were made: chimera 1a ^{∘}replacing fragment 31-40; SEQ ID No. 74), chimera 1b ^{∘}replacing fragment 41-50; SEQ ID No. 75) and chimera 1c ^{∘}replacing fragment 51-64; SEQ ID NO. 76). The constructs were transiently transfected into HEK293T cells and dose-dependent binding of the VHHs to the wild-types FRα and FRβ ^{∘}WTs) or the chimeric constructs was assessed via flow cytometry via detection of the tag ^{∘}FIG. 2B). […] Different anti-FRα VHHs were able to bind to cell-expressed FRα-FRβ chimeras to a similar level as WT FRα, with the exception of chimera 4 ^{∘}SEQ ID No. 70) where the binding was completely abolished for all VHHs.

human FOLR1/2 chimera 7 = target: T1, human FOLR1/2 chimera 7 (human, UniProt P15328 25-234); experiment: flow cytometry, transfected HEK293T cells
T1 construct: also called Ch7
T1 sequence (P15328 other isoform, or with tags, fused parts or gaps mutant limits assumed): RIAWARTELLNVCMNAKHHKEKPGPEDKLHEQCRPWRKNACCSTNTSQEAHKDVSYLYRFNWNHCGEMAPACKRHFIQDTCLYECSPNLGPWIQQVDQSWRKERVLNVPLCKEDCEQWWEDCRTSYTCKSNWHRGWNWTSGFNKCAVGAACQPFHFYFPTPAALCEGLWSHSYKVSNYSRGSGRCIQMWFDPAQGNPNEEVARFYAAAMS
Method: as §1, §2

[1] = target: T2, human FOLR1/2 chimera 1a (replacing fragment 31-40) (human, UniProt P15328 25-234); experiment: flow cytometry, transfected HEK293T cells
T2 construct: Transiently expressed on HEK293T cells
T2 sequence (P15328 other isoform, or with tags, fused parts or gaps mutant limits assumed): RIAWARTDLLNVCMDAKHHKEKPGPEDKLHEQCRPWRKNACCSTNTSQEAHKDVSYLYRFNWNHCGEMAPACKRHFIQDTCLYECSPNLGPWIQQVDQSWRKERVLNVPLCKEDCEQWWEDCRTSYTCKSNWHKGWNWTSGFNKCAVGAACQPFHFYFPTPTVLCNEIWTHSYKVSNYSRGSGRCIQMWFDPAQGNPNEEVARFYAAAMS
Method: as §1, §2

human FOLR1/2 chimera 5 = human FOLR1/2 chimera 5 (human, UniProt P15328 25-234); experiment: flow cytometry, transfected HEK293T cells
Sequence of human FOLR1/2 chimera 5 (P15328 other isoform, or with tags, fused parts or gaps mutant limits assumed): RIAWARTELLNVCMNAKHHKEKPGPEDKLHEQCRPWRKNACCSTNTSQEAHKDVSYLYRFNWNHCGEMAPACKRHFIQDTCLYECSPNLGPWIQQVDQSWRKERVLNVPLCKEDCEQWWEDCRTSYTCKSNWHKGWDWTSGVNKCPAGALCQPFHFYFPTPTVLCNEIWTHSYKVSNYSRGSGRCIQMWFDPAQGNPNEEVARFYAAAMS
Method: as §1, §2

human FOLR1/2 chimera 6 = human FOLR1/2 chimera 6 (human, UniProt P15328 25-234); experiment: flow cytometry, transfected HEK293T cells
Sequence of human FOLR1/2 chimera 6 (P15328 other isoform, or with tags, fused parts or gaps mutant limits assumed): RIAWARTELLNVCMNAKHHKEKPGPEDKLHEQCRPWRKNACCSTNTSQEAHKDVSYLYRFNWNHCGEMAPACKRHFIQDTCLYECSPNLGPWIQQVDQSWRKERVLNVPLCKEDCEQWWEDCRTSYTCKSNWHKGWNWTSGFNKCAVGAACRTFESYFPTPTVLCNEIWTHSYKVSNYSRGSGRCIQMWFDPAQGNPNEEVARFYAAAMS
Method: as §1, §2

[2] = target: T3, mouse folate receptor alpha (mFRα), recombinant protein (mouse, UniProt P35846 25-232); experiment: BLI tandem binning on mouse FRα; competitor (1st association) 2MFR32
T3 construct: Bought recombinant proteins (e.g. biotinylated, Acro Biosystems FO1-M82E9); also called mFOLR1; Ms FOLR1
T3 sequence (P35846 25-232 limits assumed): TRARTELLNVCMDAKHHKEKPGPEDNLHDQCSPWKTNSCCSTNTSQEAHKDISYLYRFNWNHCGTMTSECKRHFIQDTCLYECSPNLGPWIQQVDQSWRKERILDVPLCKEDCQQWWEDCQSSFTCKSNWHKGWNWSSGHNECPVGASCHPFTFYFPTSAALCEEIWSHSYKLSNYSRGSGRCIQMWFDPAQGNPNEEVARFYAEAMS
From the text: (§3) VHHs that share high sequence identity in the CDR3 region, a VHH family, are derived from the same B-cell lineage and diverged from each other due to somatic hypermutation or affinity maturation. Typically, VHHs from the same family recognize the same epitope on the target, but may differ in other characteristics ^{∘}De Genst et al 2006 PNAS 103:4586-4591; De Gents et al 2005 J Biol Chem 280:14114-14121). To study whether the VHHs from the different families bound different epitopes, epitope binning was performed using a tandem binding approach in BLI. One VHH from each family was allowed to bind to mouse FRα on the biosensor, followed by binding of the second VHH ^{∘}Table 4).
(§4) Competition between VHHs from different complementarity determining region ^{∘}CDR) 3 families was assessed in a tandem binding assay using biolayer interferometry ^{∘}BLI). Streptavidin biosensors were loaded with biotinylated mouse FRα ^{∘}Acro Biosystems, Cat.nr. FO1-M82E9), followed by binding of anti-FRα VHHs ^{∘}VHH in first association). The biosensors were then transferred to a solution containing a second VHH mixed 1:1 with the first VHH ^{∘}VHH in second association). Using the FortéBio Data Analysis Software the absolute additional binding signal for the second association on top of the first association was calculated. The data were normalized per VHH in first association using the following formula: ^{∘}signal-self)/^{∘}maximum-self) with self being the value of the VHH in first association in combination with the same VHH in second association.

[3] = target: T4, human folate receptor alpha (hFRα), recombinant protein (human, UniProt P15328 25-233); experiment: ELISA, periplasmic extract
T4 construct: Bought recombinant proteins (His-tagged, or biotinylated via Avi-tag, e.g. AcroBiosystems FO1-H82E2, F01-H52H1); also called hFOLR1; huFOLR1
T4 sequence (P15328 25-233 limits assumed): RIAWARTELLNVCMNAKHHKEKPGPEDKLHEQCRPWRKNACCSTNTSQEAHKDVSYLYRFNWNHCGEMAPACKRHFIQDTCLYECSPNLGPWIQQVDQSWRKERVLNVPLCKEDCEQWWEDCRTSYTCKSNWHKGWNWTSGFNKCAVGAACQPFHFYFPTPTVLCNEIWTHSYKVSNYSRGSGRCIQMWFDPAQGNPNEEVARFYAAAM
From the text: (§5) From the lymphocytes of each llama a separate VHH library was constructed to select and screen for the presence of antigen-specific VHHs. To this end, total RNA from peripheral blood lymphocytes was used as template for first strand cDNA synthesis with an oligo ^{∘}dT) primer. Using this cDNA, the VHH encoding sequences were amplified by PCR, digested with PstI and NotI, cloned into the PstI and NotI sites of the phagemid vector pMECS and transformed into E. coli to generate VHH libraries. To enrich these libraries for FRα ^{∘}or FOLR1, as used interchangeably herein)-specific VHHs, a combinatorial panning approach on recombinant human and mouse FOLR1 was used followed by random selection and screening of clones by ELISA for the presence of antigen-specific VHHs in their periplasmic extracts ^{∘}PEs). In order to gauge the cross-reactivity for human and mouse FOLR1, each clone was tested on both antigens.
(§6) After panning of core76/77 on human and mouse folate receptor alpha ^{∘}FRα), […] were randomly selected from the second and third rounds and analyzed by ELISA on both human and mouse FRα for the presence of FRα-specific VHHs in their periplasmic extracts ^{∘}PE). This led to the identification of 98 hits. For these 98 hits, the off-rate ^{∘}koff) in the PE was determined by biolayer interferometry ^{∘}BLI) on both mouse and human FRα that was directly immobilized onto AR2G biosensors. The off-rates were calculated using a 1:1 binding model. […] Abbreviations: SE: standard error.

[4] = target: T3, mouse folate receptor alpha (mFRα), …; experiment: ELISA, periplasmic extract
From the text: as §5, §6

[5] = target: T3, mouse folate receptor alpha (mFRα), …; experiment: BLI tandem binning on mouse FRα; competitor (1st association) 2HFO42
From the text: as §3, §4

Sequence of human FOLR1/2 chimera 3 (P15328 other isoform, or with tags, fused parts or gaps mutant limits assumed): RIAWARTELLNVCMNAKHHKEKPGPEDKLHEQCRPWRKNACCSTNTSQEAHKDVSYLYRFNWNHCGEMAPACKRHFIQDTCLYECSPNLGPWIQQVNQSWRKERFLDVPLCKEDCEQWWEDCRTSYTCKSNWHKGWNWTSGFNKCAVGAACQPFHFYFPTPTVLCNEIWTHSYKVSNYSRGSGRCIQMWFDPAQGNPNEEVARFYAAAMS

binding result (human FOLR1/2 chimera 3): binds | binding result (human FOLR1/2 chimera 7): binds | binding result [1]: binds | binding result (human FOLR1/2 chimera 5): binds | binding result (human FOLR1/2 chimera 6): binds | normalized additional binding in 2nd association [2]: 100% | PE-ELISA (ratio to uncoated well) [3]: 13.8 | PE-ELISA (ratio to uncoated well) [4]: 14.2 | normalized additional binding in 2nd association [5]: 12%
B1: VHH 2HFO19 (family 1) (VHH)
VHH: QVQLQESGGGLVQPGGSLRVSCAASGFPFSTVYMSWVRQAPGKGLEWVSGINNDGGVIDYADSVKGRFTISRDNAKNTLYLQLNSLKPEDTALYFCARGRSFVATLSSSLRGQGTQVTVSS
notes: also called Nb19

binding result (human FOLR1/2 chimera 3): binds | binding result (human FOLR1/2 chimera 7): binds | binding result [1]: binds | binding result (human FOLR1/2 chimera 5): binds | binding result (human FOLR1/2 chimera 6): binds | normalized additional binding in 2nd association [2]: 75% | PE-ELISA (ratio to uncoated well) [3]: 4.8 | PE-ELISA (ratio to uncoated well) [4]: 4.9 | normalized additional binding in 2nd association [5]: 34%
B2: VHH 3MFR60 (family 10) (VHH)
VHH: QVQLQESGGGLVQAGGSLRVSCAASGIIFSMNGMGWFRQAPGKQRELVASITSGGSTKYADSVKGRFTISRDNAKNTVYLQMNSLKPEDTAVYYCNIQFGSRWSTYWGQGTQVTVSS

binding result (human FOLR1/2 chimera 3): binds | binding result (human FOLR1/2 chimera 7): binds | binding result [1]: binds | binding result (human FOLR1/2 chimera 5): binds | binding result (human FOLR1/2 chimera 6): binds | normalized additional binding in 2nd association [2]: 41% | PE-ELISA (ratio to uncoated well) [3]: 11.7 | PE-ELISA (ratio to uncoated well) [4]: 12.2 | normalized additional binding in 2nd association [5]: 0%
B3: VHH 2HFO42 (family 3) (VHH)
VHH: QVQLQESGGGLVQAGGSLRLSCAASGSGFSGMIMGWYRQVPGKQRELVATVTSHGTTNYADSVKGRFTISRDNAKNTVLLQMNSLKPEDTAVYYCNAHFPGIYWGKGTQVTVSS
notes: also called 2HF042; Nb42
